Values of other authors as cited in US20180161372A1, “COMPOSITION FOR TREATING BRAIN LESIONS” (ORGANES TISSUS REGENERATION REPARATION REMPLACEMENT - OTR3, priority 2015, published 2018).

Tested on: patients
Conditions: strictly selected stroke patients

Substance: rt-PA: t-PA (tissue plasminogen activator), thrombolysis approved for ischemic stroke
- patients developing a cerebral hemorrhage following administration: 13%
